Measured values: the Human Domainome abundance scans (Beltran et al. 2025)
± gives the uncertainty stated by the source.

B1: Pyruvate dehydrogenase protein X component, mitochondrial, residues 181 to 227; numbered along this chain, O00330 (parent)
chain: RFRLSPAARNILEKHSLDASQGTATGPRGIFTKEDALKLVQLKQTGK

Variants of: B1
Assay: abundance fitness (aPCA) (normalised: wild type 0, dead -1); higher = more abundant; growth selection in yeast, the domain comes from the species named
Settings: Homo sapiens

| Variant | abundance fitness |
| --- | --- |
| RFRLSWAARNILEKHSLDASQGTATGPRGIFTKEDALKLVQLKQTGK [P6W] | -0.261 ± 0.062 |
| RFRLSIAARNILEKHSLDASQGTATGPRGIFTKEDALKLVQLKQTGK [P6I] | -0.113 ± 0.046 |
| RFRLSEAARNILEKHSLDASQGTATGPRGIFTKEDALKLVQLKQTGK [P6E] | 0.355 ± 0.064 |
| RFRLSNAARNILEKHSLDASQGTATGPRGIFTKEDALKLVQLKQTGK [P6N] | -0.053 ± 0.076 |
| RFRLSSAARNILEKHSLDASQGTATGPRGIFTKEDALKLVQLKQTGK [P6S] | 0.041 ± 0.044 |
| RFRLSFAARNILEKHSLDASQGTATGPRGIFTKEDALKLVQLKQTGK [P6F] | -0.35 ± 0.08 |
| RFRLSHAARNILEKHSLDASQGTATGPRGIFTKEDALKLVQLKQTGK [P6H] | -0.367 ± 0.087 |
| RFRLSKAARNILEKHSLDASQGTATGPRGIFTKEDALKLVQLKQTGK [P6K] | 0.07 ± 0.077 |
| RFRLSLAARNILEKHSLDASQGTATGPRGIFTKEDALKLVQLKQTGK [P6L] | -0.2 ± 0.046 |
| RFRLSRAARNILEKHSLDASQGTATGPRGIFTKEDALKLVQLKQTGK [P6R] | 0.038 ± 0.046 |
| RFRLSMAARNILEKHSLDASQGTATGPRGIFTKEDALKLVQLKQTGK [P6M] | -0.23 ± 0.094 |
| RFRLSYAARNILEKHSLDASQGTATGPRGIFTKEDALKLVQLKQTGK [P6Y] | -0.174 ± 0.067 |
| RFRLSCAARNILEKHSLDASQGTATGPRGIFTKEDALKLVQLKQTGK [P6C] | -0.004 ± 0.091 |
| RFRLSTAARNILEKHSLDASQGTATGPRGIFTKEDALKLVQLKQTGK [P6T] | -0.093 ± 0.073 |
| RFRLSGAARNILEKHSLDASQGTATGPRGIFTKEDALKLVQLKQTGK [P6G] | -0.61 ± 0.048 |
| RFRLSAAARNILEKHSLDASQGTATGPRGIFTKEDALKLVQLKQTGK [P6A] | 0.027 ± 0.058 |
| RFRLSDAARNILEKHSLDASQGTATGPRGIFTKEDALKLVQLKQTGK [P6D] | -0.091 ± 0.065 |
| RFRLSQAARNILEKHSLDASQGTATGPRGIFTKEDALKLVQLKQTGK [P6Q] | -0.08 ± 0.091 |
| RFRLSPAAHNILEKHSLDASQGTATGPRGIFTKEDALKLVQLKQTGK [R9H] | -0.252 ± 0.092 |
| RFRLSPAAENILEKHSLDASQGTATGPRGIFTKEDALKLVQLKQTGK [R9E] | -0.21 ± 0.085 |
| RFRLSPAANNILEKHSLDASQGTATGPRGIFTKEDALKLVQLKQTGK [R9N] | -0.092 ± 0.048 |
| RFRLSPAAINILEKHSLDASQGTATGPRGIFTKEDALKLVQLKQTGK [R9I] | -0.137 ± 0.056 |
| RFRLSPAACNILEKHSLDASQGTATGPRGIFTKEDALKLVQLKQTGK [R9C] | -0.924 ± 0.12 |
| RFRLSPAAVNILEKHSLDASQGTATGPRGIFTKEDALKLVQLKQTGK [R9V] | -0.206 ± 0.054 |
| RFRLSPAAYNILEKHSLDASQGTATGPRGIFTKEDALKLVQLKQTGK [R9Y] | -0.495 ± 0.076 |
| RFRLSPAADNILEKHSLDASQGTATGPRGIFTKEDALKLVQLKQTGK [R9D] | -0.262 ± 0.058 |
| RFRLSPAASNILEKHSLDASQGTATGPRGIFTKEDALKLVQLKQTGK [R9S] | -0.272 ± 0.053 |
| RFRLSPAAANILEKHSLDASQGTATGPRGIFTKEDALKLVQLKQTGK [R9A] | -0.135 ± 0.063 |

| Variant | abundance fitness |
| --- | --- |
| RFRLSPAAMNILEKHSLDASQGTATGPRGIFTKEDALKLVQLKQTGK [R9M] | -0.251 ± 0.074 |
| RFRLSPAAKNILEKHSLDASQGTATGPRGIFTKEDALKLVQLKQTGK [R9K] | 0.1 ± 0.05 |
| RFRLSPAAQNILEKHSLDASQGTATGPRGIFTKEDALKLVQLKQTGK [R9Q] | -0.05 ± 0.079 |
| RFRLSPAAWNILEKHSLDASQGTATGPRGIFTKEDALKLVQLKQTGK [R9W] | -0.668 ± 0.089 |
| RFRLSPAAGNILEKHSLDASQGTATGPRGIFTKEDALKLVQLKQTGK [R9G] | -0.152 ± 0.042 |
| RFRLWPAARNILEKHSLDASQGTATGPRGIFTKEDALKLVQLKQTGK [S5W] | -1.01 ± 0.14 |
| RFRLIPAARNILEKHSLDASQGTATGPRGIFTKEDALKLVQLKQTGK [S5I] | -0.135 ± 0.19 |
| RFRLHPAARNILEKHSLDASQGTATGPRGIFTKEDALKLVQLKQTGK [S5H] | -0.795 ± 0.14 |
| RFRLLPAARNILEKHSLDASQGTATGPRGIFTKEDALKLVQLKQTGK [S5L] | -0.725 ± 0.072 |
| RFRLNPAARNILEKHSLDASQGTATGPRGIFTKEDALKLVQLKQTGK [S5N] | -0.327 ± 0.2 |
| RFRLVPAARNILEKHSLDASQGTATGPRGIFTKEDALKLVQLKQTGK [S5V] | -0.621 ± 0.048 |
| RFRLKPAARNILEKHSLDASQGTATGPRGIFTKEDALKLVQLKQTGK [S5K] | -0.61 ± 0.065 |
| RFRLMPAARNILEKHSLDASQGTATGPRGIFTKEDALKLVQLKQTGK [S5M] | -0.036 ± 0.062 |
| RFRLGPAARNILEKHSLDASQGTATGPRGIFTKEDALKLVQLKQTGK [S5G] | -0.564 ± 0.049 |
| RFRLRPAARNILEKHSLDASQGTATGPRGIFTKEDALKLVQLKQTGK [S5R] | -0.862 ± 0.057 |
| RFRLQPAARNILEKHSLDASQGTATGPRGIFTKEDALKLVQLKQTGK [S5Q] | -0.384 ± 0.097 |
| RFRLTPAARNILEKHSLDASQGTATGPRGIFTKEDALKLVQLKQTGK [S5T] | -0.032 ± 0.064 |
| RFRLSPAARNVLEKHSLDASQGTATGPRGIFTKEDALKLVQLKQTGK [I11V] | -0.314 ± 0.053 |
| RFRLSPAARNLLEKHSLDASQGTATGPRGIFTKEDALKLVQLKQTGK [I11L] | -0.316 ± 0.066 |
| RFRLSPAARNQLEKHSLDASQGTATGPRGIFTKEDALKLVQLKQTGK [I11Q] | -0.469 ± 0.095 |
| RFRLSPAARNNLEKHSLDASQGTATGPRGIFTKEDALKLVQLKQTGK [I11N] | -0.194 ± 0.1 |
| RFRLSPAARNFLEKHSLDASQGTATGPRGIFTKEDALKLVQLKQTGK [I11F] | -0.424 ± 0.14 |
| RFRLSPAARNHLEKHSLDASQGTATGPRGIFTKEDALKLVQLKQTGK [I11H] | -0.369 ± 0.11 |
| RFRLSPAARNCLEKHSLDASQGTATGPRGIFTKEDALKLVQLKQTGK [I11C] | -0.485 ± 0.07 |
| RFRLSPAARNWLEKHSLDASQGTATGPRGIFTKEDALKLVQLKQTGK [I11W] | -0.786 ± 0.092 |
| RFRLSPAARNALEKHSLDASQGTATGPRGIFTKEDALKLVQLKQTGK [I11A] | -0.356 ± 0.057 |
| RFRLSPAARNELEKHSLDASQGTATGPRGIFTKEDALKLVQLKQTGK [I11E] | -0.528 ± 0.075 |
